According to US20140366224A1 (CONSEJO SUPERIOR DE INVESTIGACIONES CIENTIFICAS, published 2014):
Changes are numbered by the printed parent chain. Names and notes keep the numbering of the source. One block for each binder: values may come before it.

What was measured:
[1] = molecular target: T1, IYO fused to split YFP (nYFP or cYFP) (Arabidopsis thaliana, UniProt Q8GYU3 1-1465); experiment: BiFC context, truncated AtRTR1
T1 construct: BiFC construct expressed in Nicotiana benthamiana leaf epidermal cells; The position of the YFP half varied between combinations, so the order of the parts is not fixed; also called split YFP fused to IYO; not shown: nYFP or cYFP half of split YFP, fused at the N- or C-terminus (different combinations were used)
T1 sequence: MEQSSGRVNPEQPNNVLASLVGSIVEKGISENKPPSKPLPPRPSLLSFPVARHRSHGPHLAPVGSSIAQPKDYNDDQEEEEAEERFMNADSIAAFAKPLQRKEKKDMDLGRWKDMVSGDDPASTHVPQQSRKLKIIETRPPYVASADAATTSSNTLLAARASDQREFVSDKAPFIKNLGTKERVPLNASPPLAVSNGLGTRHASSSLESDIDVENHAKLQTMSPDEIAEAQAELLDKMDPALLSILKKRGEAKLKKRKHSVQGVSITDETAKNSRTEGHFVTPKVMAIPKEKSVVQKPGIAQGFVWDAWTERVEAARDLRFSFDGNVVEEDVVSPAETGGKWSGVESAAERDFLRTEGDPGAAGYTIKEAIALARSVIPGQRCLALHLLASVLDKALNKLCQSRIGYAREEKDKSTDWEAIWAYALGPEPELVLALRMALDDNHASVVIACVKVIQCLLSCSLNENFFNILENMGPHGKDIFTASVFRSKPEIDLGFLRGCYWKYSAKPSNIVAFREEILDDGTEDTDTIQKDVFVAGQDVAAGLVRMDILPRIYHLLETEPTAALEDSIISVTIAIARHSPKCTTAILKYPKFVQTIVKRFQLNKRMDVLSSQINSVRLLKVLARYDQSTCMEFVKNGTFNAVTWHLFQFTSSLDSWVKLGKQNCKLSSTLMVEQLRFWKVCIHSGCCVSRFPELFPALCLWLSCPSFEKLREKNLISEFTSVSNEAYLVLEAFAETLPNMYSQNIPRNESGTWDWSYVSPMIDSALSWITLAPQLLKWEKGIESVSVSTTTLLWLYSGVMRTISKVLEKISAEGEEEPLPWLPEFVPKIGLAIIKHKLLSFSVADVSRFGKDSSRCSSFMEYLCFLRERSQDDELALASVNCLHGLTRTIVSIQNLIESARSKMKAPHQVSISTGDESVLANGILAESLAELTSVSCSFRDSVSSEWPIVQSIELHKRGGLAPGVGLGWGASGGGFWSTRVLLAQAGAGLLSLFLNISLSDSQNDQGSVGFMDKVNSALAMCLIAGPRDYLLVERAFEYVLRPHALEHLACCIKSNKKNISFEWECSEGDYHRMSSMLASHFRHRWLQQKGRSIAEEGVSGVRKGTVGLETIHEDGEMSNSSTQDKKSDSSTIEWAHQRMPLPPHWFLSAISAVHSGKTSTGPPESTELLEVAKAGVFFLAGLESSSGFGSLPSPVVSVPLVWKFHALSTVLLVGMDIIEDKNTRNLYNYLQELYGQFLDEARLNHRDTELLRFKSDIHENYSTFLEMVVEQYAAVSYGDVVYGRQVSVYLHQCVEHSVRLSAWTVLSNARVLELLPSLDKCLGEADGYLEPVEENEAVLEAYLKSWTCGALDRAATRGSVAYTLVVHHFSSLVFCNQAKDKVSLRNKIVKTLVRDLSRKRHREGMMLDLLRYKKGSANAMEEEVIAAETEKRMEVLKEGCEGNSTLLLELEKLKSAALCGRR
Excerpt: (§1) Applicants tested for the in vivo interaction between IYO and AtRTR1 through a bimolecular fluorescence complementation assay in epidermal cells from Nicotiana benthamiana leaves.

[2] = molecular target: T1, IYO fused to split YFP (nYFP or cYFP); experiment: BiFC, split YFP in Nicotiana benthamiana leaves
Excerpt: Although the bulk of AtRTR1 is present in the cytosol, we found high levels of nuclear fluorescence reconstitution when split YFP fused to IYO and AtRTR1 was expressed in Nicotiana benthamiana leaves (FIGS. 12-14). This confirms that IYO and AtRTR1 interact physically, and that they do so in the nucleus. […] To test this, Applicants analyzed the subcellular distribution of AtRTR1 in the presence or absence of co-expressed IYO. These experiments confirmed that co-expressed IYO increases the accumulation of AtRTR1 in the nucleus.
as §1

[3] = molecular target: T1, IYO fused to split YFP (nYFP or cYFP); experiment: BiFC (split YFP) in Nicotiana benthamiana leaf cells
Excerpt: as §1

binding result [1]: binds
B1: C-terminal half of AtRTR1 (aa 305-735) (other, not shown: large carriers)
chain: EMGLASSAMMSDGYGVEYSVSKQPQCSMEDSLSCKLKGDLQTLDGKNTLSGSSSGSNTKGSKTKPEKSRKKIISVEYHANSYEDGEEILAAESYERHKAQDVCSSSEIVTKSCLKISGSKKLSRSVTWADQNDGRGDLCEVRNNDNAAGPSLSSNDIEDVNSLSRLALAEALATALSQAAEAVSSGNSDASDATAKAGIILLPSTHQLDEEVTEEHSEEEMTEEEPTLLKWPNKPGIPDSDLFDRDQSWFDGPPEGFNLTLSNFAVMWDSLFGWVSSSSLAYIYGKEESAHEEFLLVNGKEYPRRIIMVDGLSSEIKQTIAGCLARALPRVVTHLRLPIAISELEKGLGSLLETMSLTGAVPSFRVKEWLVIVLLFLDALSVSRIPRIAPYISNRDKILEGSGIGNEEYETMKDILLPLGRVPQFATRSGA
notes: also called truncated C-terminal half of AtRTR1; C-terminal half of RTR1

binding result [2]: binds
B2: AtRTR1 (At5g26760) full-length, fused to split YFP (nYFP or cYFP) (other)
chain: MAKDNEAIAINDAVHKLQLYMLENTTDQNQLFAARKLMSRSDYEDVVTERAIAKLCGYTLCQRFLPSDVSRRGKYRISLKDHKVYDLQETSKFCSAGCLIDSKTFSGSLQEARTLEFDSVKLNEILDLFGDSLEVKGSLDVNKDLDLSKLMIKENFGVRGEELSLEKWMGPSNAVEGYVPFDRSKSSNDSKATTQSNQEKHEMDFTSTVIMPDVNSVSKLPPQTKQASTVVESVDGKGKTVLKEQTVVPPTKKVSRFRREKEKEKKTFGVDGMGCAQEKTTVLPRKILSFCNEIEKDFKNFGFDEMGLASSAMMSDGYGVEYSVSKQPQCSMEDSLSCKLKGDLQTLDGKNTLSGSSSGSNTKGSKTKPEKSRKKIISVEYHANSYEDGEEILAAESYERHKAQDVCSSSEIVTKSCLKISGSKKLSRSVTWADQNDGRGDLCEVRNNDNAAGPSLSSNDIEDVNSLSRLALAEALATALSQAAEAVSSGNSDASDATAKAGIILLPSTHQLDEEVTEEHSEEEMTEEEPTLLKWPNKPGIPDSDLFDRDQSWFDGPPEGFNLTLSNFAVMWDSLFGWVSSSSLAYIYGKEESAHEEFLLVNGKEYPRRIIMVDGLSSEIKQTIAGCLARALPRVVTHLRLPIAISELEKGLGSLLETMSLTGAVPSFRVKEWLVIVLLFLDALSVSRIPRIAPYISNRDKILEGSGIGNEEYETMKDILLPLGRVPQFATRSGA
notes: Wild-type full-length AtRTR1 in BiFC in Nicotiana benthamiana leaves; The position of the YFP half varied; also called split YFP fused to AtRTR1; not shown: nYFP or cYFP half of split YFP, fused at the N- or C-terminus (different combinations were used)

binding result [3]: no binding
B3: full-length AtRTR1 C56A/C61A (other, not shown: large carriers)
chain: B2 chain with C56A, C61A
notes: The putative zinc-coordinating cysteines are substituted by alanine

binding result [3]: no binding
B4: full-length AtRTR1 C94A/C98A (other, not shown: large carriers)
chain: B2 chain with C94A, C98A
notes: as for B3
